{"source": "paper PMC6850650", "about": "“Superfolder mTurquoise2^ox optimized for the bacterial periplasm allows high efficiency in vivo FRET of cell division antibiotic targets” (Molecular Microbiology, 2019)", "binders": {"B1": {"name": "FtsB-sfTq2^ox (natural protein, E. coli, UniProt P0A6S5 1-103, looked up)", "chain": "MGKLTLLLLAILVWLQYSLWFGKNGIHDYTRVNDDVAAQQATNAKLKARNDQLFAEIDDLNGGQEALEERARNELSMTRPGETFYRLVPDASKRAQSAGQNNR", "notes": "cell division protein FtsB of E. coli; The end of the FP is read from the printed name FtsB-sfTq2^ox; source: E. coli, from plasmid, in the cells (FP in the periplasm); not shown: sfTq2^ox, C-terminal, kept"}, "B2": {"name": "PBP5 (D,D-carboxypeptidase) fused to sfTq2 (donor copy) or mNeongreen (acceptor copy) (enzyme, E. coli, UniProt P0AEB2 30-403, looked up)", "chain": "DDLNIKTMIPGVPQIDAESYILIDYNSGKVLAEQNADVRRDPASLTKMMTSYVIGQAMKAGKFKETDLVTIGNDAWATGNPVFKGSSLMFLKPGMQVPVSQLIRGINLQSGNDACVAMADFAAGSQDAFVGLMNSYVNALGLKNTHFQTVHGLDADGQYSSARDMALIGQALIRDVPNEYSIYKEKEFTFNGIRQLNRNGLLWDNSLNVDGIKTGHTDKAGYNLVASATEGQMRLISAVMGGRTFKGREAESKKLLTWGFRFFETVNPLKVGKEFASEPVWFGDSDRASLGVDKDVYLTIPRGRMKDLKASYVLNSSELHAPLQKNQVVGTINFQLDGKTIEQRPLVVLQEIPEGNFFGKIIDYIKLMFHHWFG", "notes": "PBP5 (D,D-carboxypeptidase, encoded by dacA) of E. coli; Self-association measured between two differently fused copies (sfTq2-PBP5 and mNG-PBP5); PBP5's own signal peptide is probably replaced by that of DsbA (surmised); also called sfTq2-PBP5; DsbA^ss-FP-PBP5; source: E. coli CS109 ΔdacA, from plasmid, in the periplasm of the cells; not shown: sfTq2 (on the donor copy), N-terminal, kept; …"}, "B3": {"name": "PBP5^S44G (inactive mutant) fused to sfTq2 (donor copy) or mNeongreen (acceptor copy) (enzyme, E. coli, UniProt P0AEB2 30-403, looked up)", "chain": "B2 chain with S44G", "notes": "PBP5 (D,D-carboxypeptidase, encoded by dacA) of E. coli with S44G; Self-association measured between two differently fused copies; source: E. coli CS109 ΔdacA, from plasmid, in the periplasm of the cells; not shown: sfTq2 (on the donor copy), N-terminal, kept; mNeongreen (on the acceptor copy), N-terminal, kept"}, "B4": {"name": "FtsL-sfTq2^ox (natural protein, E. coli, UniProt P0AEN4 1-121, looked up)", "chain": "MISRVTEALSKVKGSMGSHERHALPGVIGDDLLRFGKLPLCLFICIILTAVTVVTTAHHTRLLTAQREQLVLERDALDIEWRNLILEENALGDHSRVERIATEKLQMQHVDPSQENIVVQK", "notes": "cell division protein FtsL of E. coli; The end of the FP is read from the printed name; source: E. coli, from plasmid, in the cells (FP in the periplasm); not shown: sfTq2^ox, C-terminal, kept"}}, "test_in_all_cases": "FRET or BRET; in vivo in the periplasm of E. coli; donor sfTq2 or sfTq2^ox, acceptor mNG, each fused to one partner; emission spectra taken with a fluorometer and unmixed, EfA from sensitised emission; PBP5 dimerisation in CS109 ΔdacA, controls in LMC500 and CS109 ΔdacA", "key": {"FtsL-mNG": {"biological_target": "T1, FtsL-mNG (E. coli, UniProt P0AEN4 1-121)", "T1 construct": "cell division protein FtsL of E. coli; The end of the FP is read from the printed name FtsL-mNG; source: E. coli, from plasmid, in the cells (FP in the periplasm); not shown: mNeongreen, C-terminal, kept", "T1 sequence (looked up)": "B4 chain", "details": "partners not purified"}, "[1]": {"biological_target": "the molecule itself"}, "FtsB-mNG": {"biological_target": "T2, FtsB-mNG (E. coli, UniProt P0A6S5 1-103)", "T2 construct": "cell division protein FtsB of E. coli; The end of the FP is read from the printed name; also called wild-type FtsB-mNG; source: E. coli, from plasmid, in the cells (FP in the periplasm); not shown: mNeongreen, C-terminal, kept", "T2 sequence (looked up)": "B1 chain", "details": "partners not purified"}}, "note": "Substitutions are numbered along the chain they refer to. In names and notes the source's numbering stands."}
{"binder": "B1", "values": [{"measurement": "EfA (FRET efficiency)", "setting": "FtsL-mNG", "result": 19.2, "unit": "%"}]}
{"binder": "B2", "values": [{"measurement": "EfA (FRET efficiency)", "setting": "[1]", "result": 4.2, "unit": "%"}]}
{"binder": "B3", "values": [{"measurement": "EfA (FRET efficiency)", "setting": "[1]", "result": 8.8, "unit": "%"}]}
{"binder": "B4", "values": [{"measurement": "EfA (FRET efficiency)", "setting": "FtsB-mNG", "result": 15.6, "unit": "%"}]}
